Experiment [1] addresses Mad1 CTD (UniProt Q9Y6D9). Put plainly: ITC. Conditions: reference: pT461 peptide; sites S459.
The target of experiment [2] is Mad1 CTD (UniProt Q9Y6D9). Put plainly: peptide-bead pull-down, Coomassie.
In a further experiment the target is Cdc20 Cdc20N, 1-170 (UniProt Q12834). The experiment in a line: Ni2+ bead pull-down, anti-Mad1 blot. Conditions: reference: Mad1E–Mad2 wild type; sites T716.
Experiment [3] concerns the target scMad1 CTD (UniProt P40957). The experiment in a line: ITC. Conditions: reference: pT455 peptide; sites T453.
The target in experiment [4] is scMad1 CTD (UniProt P40957). Put plainly: peptide-bead pull-down, Coomassie.

Consider “Bub1 455-477 (from UniProt O43683) pS459-pT461 peptide”, for which the “binding against the reference” value in the experiment with Mad1 CTD [1] is listed as “stronger”; with Mad1 CTD [2] (reference: pT461 peptide, sites S459), “stronger”.

Turning to “Bub1 455-477 (from UniProt O43683) pS459-pT461-pT464 peptide”, the “binding against the reference” value with Mad1 CTD [2] (reference: pS459-pT461 peptide, sites T464) was “weaker”.

As to “Mad1 Mad1E (MIM + CTD) (from UniProt Q9Y6D9) Mad1E T716A”, the “binding against the reference” value with Cdc20 Cdc20N, 1-170 is given as “weaker”. Regarding “scBub1 449-473 (from UniProt P41695) pT453-pT455 peptide”, the “binding against the reference” value is “same” with scMad1 CTD [3]; “stronger” with scMad1 CTD [4] (reference: pT453 peptide, sites T455); “same” with scMad1 CTD [4] (reference: pT455 peptide, sites T453).

(Values after PMC5268738, “A sequential multi-target Mps1 phosphorylation cascade promotes spindle checkpoint signaling” (eLife, 2017).)
